Source: paper PMC10496648

Target: Kv4.2-YFP (mouse) (UniProt Q9Z0V2)
Experiment: FRET or BRET

Sequence of UniProt Q9Z0V2 (Q9Z0V2 whole entry): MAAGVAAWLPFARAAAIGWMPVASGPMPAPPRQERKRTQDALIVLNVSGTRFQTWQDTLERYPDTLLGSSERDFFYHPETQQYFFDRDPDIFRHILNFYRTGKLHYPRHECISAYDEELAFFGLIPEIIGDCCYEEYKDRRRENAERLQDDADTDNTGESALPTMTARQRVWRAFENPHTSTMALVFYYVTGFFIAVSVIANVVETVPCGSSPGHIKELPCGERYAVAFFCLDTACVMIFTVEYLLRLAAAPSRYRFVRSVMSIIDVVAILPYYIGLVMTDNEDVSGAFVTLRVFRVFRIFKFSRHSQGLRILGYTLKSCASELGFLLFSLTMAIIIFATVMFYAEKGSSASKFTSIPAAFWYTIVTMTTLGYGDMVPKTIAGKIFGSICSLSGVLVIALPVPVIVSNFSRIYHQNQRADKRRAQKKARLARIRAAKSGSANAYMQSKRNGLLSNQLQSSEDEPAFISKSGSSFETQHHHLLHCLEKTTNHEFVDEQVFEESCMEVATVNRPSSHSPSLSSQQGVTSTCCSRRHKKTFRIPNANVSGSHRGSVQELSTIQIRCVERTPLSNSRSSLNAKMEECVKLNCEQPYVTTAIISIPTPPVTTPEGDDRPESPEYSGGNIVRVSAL

## KChIP3a-CFP (text) / KChIP2c-CFP (legend, methods) (from UniProt Q9JM59-3 1-220) (natural protein)
  FRET efficiency: 11.2%
  stoichiometry N: 1
